Among the data in patent US20100221262A1 are Kd values, retold here.

In one experiment the target is Murine Unc5B (mouse) (UniProt Q8K1S3). The experiment can be described thus: SPR (ProteOn XPR36), antibody immobilised, murine Unc5B-His as analyte.
The target of experiment [1] is human Unc5B-His (two N-terminal Ig-like domains of Unc5B, amino acid M1 to amino acid V243, C-terminal Histidine tag) (human) (UniProt Q8IZJ1). The experiment can be described thus: SPR (ProteOn XPR36), antibody immobilised, human Unc5B-His as analyte.

Sequence of Murine Unc5B (mouse) (Q8K1S3 27-243 limits assumed, form in doubt): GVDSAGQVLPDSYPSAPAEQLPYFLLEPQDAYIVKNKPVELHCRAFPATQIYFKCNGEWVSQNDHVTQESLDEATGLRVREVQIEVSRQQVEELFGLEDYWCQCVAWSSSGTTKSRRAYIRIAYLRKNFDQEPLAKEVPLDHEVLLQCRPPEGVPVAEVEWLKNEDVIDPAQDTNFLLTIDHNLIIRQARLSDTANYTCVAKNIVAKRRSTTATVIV

B1: YW 88.7 (antibody, part only; not given: constant regions, part only)
heavy chain, part: EVQLVESGGGLVQPGGSLRLSCAASGFTFSDNWISWVRQAPKGLEWVGGIYPAGGYTYYADSVKGRFTISADTSKNTAYLQMSLRAEDTAVYYCAHDIHTRIAVMDYWGQGTLVTVSS
light chain: DIQMTQSPSSLSASVGDRVTITCRASQDVSTAVAWYQQKPGKAPKLLIYSASFLYSGVPSRFSGSGSGTDFTLTISSLQPEDFATYYCQQSYTTPPTFGQGTKVEIKR
Take B1: the equilibrium dissociation constant (Kd) came to 1.1 nM with Murine Unc5B (mouse) and 20 nM in experiment [1].

B2: YW 88.64 (antibody, part only; not given: constant regions, part only)
heavy chain, part: EVQLVESGGGLVQPGGSLRLSCAASGFTFSNSGISWVRQAPKGLEWVGYIYPDNGSTNYADSVKGRFTISADTSKNTAYLQMSLRAEDTAVYYCARGVWWFDYWGQGTLVTVSS
light chain: DIQMTQSPSSLSASVGDRVTITCRASQDVSTAVAWYQQKPGKAPKLLIYSASFLYSGVPSRFSGSGSGTDFTLTISSLQPEDFATYYCQQSYTTPPTFGQGTKVEIKR
B2 returned a dissociation constant (Kd) in experiment [1] of 84 nM.

B3: YW 83.4 (antibody, part only; not given: constant regions, part only)
heavy chain, part: EVQLVESGGGLVQPGGSLRLSCAASGFTFTNYDIHWVRQAPKGLEWVGWISPSGGYTNYADSVKGRFTISADTSKNTAYLQMSLRAEDTAVYYCARQLWAVRGWVMDYWGQGTLVTVSS
light chain: DIQMTQSPSSLSASVGDRVTITCRASQDVSTAVAWYQQKPGKAPKLLIYSASFLYSGVPSRFSGSGSGTDFTLTISSLQPEDFATYYCQQSYTTPPTFGQGTKVEIKR
In the case of B3, the Kd in experiment [1] was 2.9 nM.

B4: YW 83.7 (antibody, part only; not given: constant regions, part only)
heavy chain, part: EVQLVESGGGLVQPGGSLRLSCAASGFTFTGSSIHWVRQAPKGLEWVGWITPNGGYTNYADSVKGRFTISADTSKNTAYLQMSLRAEDTAVYYCARQSWVLRGWAMDYWGQGTLVTVSS
light chain: DIQMTQSPSSLSASVGDRVTITCRASQDVSTAVAWYQQKPGKAPKLLIYSASFLYSGVPSRFSGSGSGTDFTLTISSLQPEDFATYYCQQSYTTPPTFGQGTKVEIKR
As to B4, the Kd in experiment [1] amounted to 4.1 nM.
